Target: the molecule itself
Experiment: SEC

## QKQIANQFNKAISQIQESLTTTSTALGKLQDVVNQNAQALNTLVKQLSS [HRN extended (902–950)]
  stoichiometry N: 3

— paper PMC7119934 (Peptide Characterization and Application Protocols, 2007)
